# Test: soluble on expression in E. coli; label from the status in PepcDB or PDB records
row,Sequence,soluble on expression in E. coli
1,MIVHVVKRGETLWQLAQRYGVPLERIVAANELSDPNRLAVGQALVIPVPYRYHTVRTGETLWQIARQYGVAVEAIIQANRITNPSLLYPGTTLFIPARIHTVRSGETLAQIASFYGVTVQQLIEVNDITDPNRIVPGQRLIIPPAKPLIEVNAFTVDQGEKGAEQVREVGRHLTYAAPFAYTIRADGGLNPINDTAFIQAAYAARVVPMMTITNFTYQDPGSRLAQMILADVALQTRLLDNVIQVMRAKGYRTLNVDFENVYPSDRKRYNEFLQRAANRLHAEGYVLSTSLAPKISAEQKGLLYEAHDYPAHGRIADFVVLMTYEWGYRFGPPQAISPVNQIRRVLDYAVTAIPRSKIMMGFQIYARDWVLPHVQGQEAETFSPKEALERAVRYGASIQYDAAAASPFYRYTDEQGRQHEVWFEDARSALAKFELVKEYGLRGISYWVLGYPYPENWVLLEDNFRIRKRG,not soluble
2,MGHHHHHHHHHHSSGHIDDDDKHMGSMAELKYISGFGNECSSEDPRCPGSLPEGQNNPQVCPYNLYAEQLSGSAFTCPRSTNKRSWLYRILPSVSHKPFESIDEGHVTHNWDEVDPDPNQLRWKPFEIPKASQKKVDFVSGLHTLCGAGDIKSNNGLAIHIFLCNTSMENRCFYNSDGDFLIVPQKGNLLIYTEFGKMLVQPNEICVIQRGMRFSIDVFEETRGYILEVYGVHFELPDLGPIGANGLANPRDFLIPIAWYEDRQVPGGYTVINKYQGKLFAAKQDVSPFNVVAWHGNYTPYKYNLKNFMVINSVAFDHADPSIFTVLTAKSVRPGVAIADFVIFPPRWGVADKTFRPPYYHRNCMSEFMGLIRGHYEAKQGGFLPGGGSLHSTMTPHGPDADCFEKASKVKLAPERIADGTMAFMFESSLSLAVTKWGLKASRCLDENYHKCWEPLKSHFTPNSRNPAEPN,soluble
3,MDYLTTNKIAWDARTRVHLTSDFYDVEGFLSGKISLTEIELNELAVAGKSLLHLQCHFGLDTLSWARMGAKVTGVDLSEVAIAEACKLAQQTQLSAEFICSDVYSVVGKVEPQDIVFTSYGAIVWLPDLTLWAQTIAACLKPGGQFYMAEFHPAQQLFDGYSYFNRGEPDIEQEGTYTENASDDQQTLMCWSHSLSEVINALLQAGLELVFFHEFAFSPYNCFEGLEAQADGRYVLIHQGQQVPLVYSISARKPVLEHHHHHH,soluble
4,APVNWGPGETNDSTTVEPVLDGPYQPTTFNPPVDYWMLLAPTAAGVVVEGTNNTDRWLATILVEPNVTSETRSYTLFGTQEQITIANASQTQWKFIDVVKTTQNGSYSQYGPLQSTPKLYAVMKHNGKIYTYNGETPNVTTKYYSTTNYDSVNMTAFCDFYIIPREEESTCTEYINNGLPPIQNTR,soluble
5,MKKWLPAFLFLSLSGCNDALAANQSTMFYSFNDNIYRPQLSVKVTDIVQFIVDINSASSTATLSYVACNGFTWTHGLYWSEYFAWLVVPKHVSYNGYNIYLELQSRGSFSLDAEDNDNYYLTKGFAWDEANTSGQTCFNIGEKRSLAWSFGGVTLNARLPVDLPKGDYTFPVKFLRGIQRNNYDYIGGRYKIPSSLMKTFPFNGTLNFSIKNTGGCRPSAQSLEINHGDLSINSANNHYAAQTLSVSCDVPTNIRFFLLSNTNPAYSHGQQFSVGLGHGWDSIISINGVDTGETTMRWYRAGTQNLTTGSRLYGESSKIQPGVLSGSATLLMILP,soluble
6,MNWRAASAPPRSSPGLTSTCSRAAHWRDRGGAAAHAVLANVPQGRTLRDDAADLGWKPNHKFKGKLILTAPDAMPVDLNGVTITIAGPLQDELQALQDMHDQWLRQRKADPTRPPASAMLAAFVDKSVPNLSSIVLLAECGGKTMLLTGDARGDKIIEGLETTGKLAKDETLHVDILKVPHHGSDNNMETSFFERVTADHYVFSGNGDYGNPERATLQMLLDARGVAEDFTIHLTYPIEEIDAGREADWVKQQAKEAGRAKPPKGGVRPDWSAEEQGLVAFFANNPELAAHLIDLLDKAVVLEHHHHHH,not soluble
7,MGSDKIHHHHHHMTKRDPSTLIRIARENGAEAEAEPLDLGARVRELRKARDWTLEQAASQAGLARSTLSKIENGQMSPTYDALKKLAVGLQISVPQLFTPPQKGQVNGRMTVTKSGSGSGHATATYEHELLADSLTKKQMLPYRARVRARAMEEFDGWVRHDGEEFLYVLTGVIRLYTEFYEPIEMRRGDSAYYDASMGHNVVSVSDEDATILWVTSLV,not soluble
8,MRSRRGLLIVLSGPSGVGKGTVRKELFSHEDTRFQYSISVTTRKPREGEVDGVDYFFKEREEFEEMIRNEKLLEWAEFVGNYYGTPIDYVEKTLQEGKDVFLEIEVQGAIQVKKAFPEGVFIFLAPPSLSELKNRIVGRGTETEDVIENRLTVAKEEIDMMDAYDYVVENDQVELACERIKAIVVGEHCRRERVAKYYKEMTEGL,not soluble
9,MVAIVDVGITKFGKRKENIFDLVKEVTEKLLKYDIDYVIVSNSYSGEFNQTSGLSSLITTYLNLDYVPSLRVDNTSGSGGSAILVAKSLLESKEANTVLVVGVEKMSEKKTREVTKIISSLLPFEERIASLPSLASISAIEYMRKFNAPRESIAQVAVKNHYNGSLNPFAHIQKRVTLEEVLNSPVISEPLRLYEYTPISDGAAAVVMVRNEDALSYTSKPVYIKGIGSSNYTAYVSEKEDFVTLPAVVEASRKAFKKAKVERIDFAELHDMATILEIIQSEDIGLFKKGEGWKAVMEGLTSLDGEIPINPSGGLNSKGHPIGASGVAQAVEAFSQIRNEAGNRQVKNARVGLSLSMAGYGNSATVIIYGDEP,soluble
10,MPGIDKLPIEETLEDSPQTRSLLGVFEEDATAISNYMNQLYQAMHRIYDAQNELSAATHLTSKLLKEYEKQRFPLGGDDEVMSSTLQQFSKVIDELSSCHAVLSTQLADAMMFPITQFKERDLKEILTLKEVFQIASNDHDAAINRYSRLSKKRENDKVKYEVTEDVYTSRKKQHQTMMHYFCALNTLQYKKKIALLEPLLGYMQAQISFFKMGSENLNEQLEEFLANIGTSVQNVRREMDSDIETMQQTIEDLEVASDPLYVPDPDPTKFPVNRNLTRKAGYLNARNKTGLVSSTWDRQFYFTQGGNLMSQARGDVAGGLAMDIDNCSVMAVDCEDRRYCFQITSFDGKKSSILQAESKKDHEEWICTINNISKQIYLSENPEETAARVNQSALEAVTPSPSFQQRHESLRPAAGQSRPPTARTSSSGSLGSESTNLAALSLDSLVAPDTPIQFDIISPVCEDQPGQAKAFGQGGRRTNPFGESGGSTKSETEDSILHQLFIVRFLGSMEVKSDDHPDVVYETMRQILAARAIHNIFRMTESHLLVTCDCLKLIDPQTQVTRLTFPLPCVVLYATHQENKRLFGFVLRTSSGRSESNLSSVCYIFESNNEGEKICDSVGLAKQIALHAELDRRASEKQ,not soluble
11,MSLYIETVRGKIKPEEFGVCACHEHLHIDLSRIKNDSDTALVEVALVLSDLKSFVSHGGQAIVDVTNDGMGRDVEKLVVMSEALDLHIVASTGCYKDPFIPEEKQMWTREQFAEWMIDEIMYGISGTTVKPGVIGEIGSSLNEFKPVELELFYGAIEAAKTTKLPLSTHTTLGTLAMEQIRLFDSESLPLDQVIIGHQDLNDDDEQVLKVLSTGAYVALDTIGKENYRSDEARLNSLLLFLEKGYEDQLLLSSDVTRTSHLLVHGGQGYDVVLRSFIPKLRAKGADEATIQKLLVKTHKKHLASREGHHHHHH,not soluble
12,MSLKVEYFSDSSAVPHLHLENEDSYSVTDDLFIVADGVGSYEGSKDASRYAVNYLSKMAKEIQSKEQLVEEIIKLSEEIKSIGIISGRPLMSTTISVLKISTEKYITANVGDSPIVLLRSGKLYKLYIDDSERSSTGNRFALEQAFGWNHVIVHSFEGKLEKGDLFIICTDGVSDNLSDEYDLYSILRELDAQTIVRLALNKGIKPDDATIIKVYVTMAEGHHHHHH,soluble
13,MGSDKIHHHHHHMDTKFSCVGCGGCCTDHHVPLTLLEARQWAADGGNVIVLTEAFLSNGYGVAQNQLTHATRRSTEVNSGSTTAFVAITFAAYNVGRCRNLDEENLCRIYERRPLVCRIYPMEINPHIPLRPETKGCPPESWEQGPDLIVGDTLVDTQLMSLIEQSRQADRDEIAAKQLICQQLGIRTTALKGNGFVAYLPDMNAFAAAIENVANLAGAAPENSDWEFHVAGQHVVDTLQQEGADVTDREPVSYLFIPLQAA,not soluble
14,MGSDKIHHHHHHMTDTTIPNPLAPVKGANTTFWMYNSEGDPFASPLSDNNWLRLANVKDLQPGELTADAEDNNYLDDENADWKSTTQGQKSAGDTSVTLAWKPGEDVQKKLIQLFTTGQKRGFRIKYPNGTVDVFRGWVSSLGKTVQSKDEIARTVKITSVGRPYMAEEDAPEVVSVTGLTVEPTNATVKVGATTAVTFTVKPDNVTDKSLRIATSDPTTATVTQAENIATVKGVKAGTVKIIGMTTDGNFTAIADITVQA,not soluble
15,MAHHHHHHMPIHQYEGWSYERLRQQRNRAHFLLEDPYRYVTVLLISKPGRPEELKCIDSPCYHAAGPLGEGDIVEIEDLLCLRCPWHRYLVNIENGEEILLRVDPASAQGAGIVGRQAALPTYPMHFTDPSAEGVTVVHGEKVQRVHRAWLEEATGILSIEVAEEAVMRQHPVKSDKPAGNVKNGGICMQIFDIKLRGLDKL,not soluble
16,MKLINTTNSHSQLVKSQLESTDATLVEVYSAGNTDVIFTQAPLHYEILISNKHRAIREPEIETIQEFFLKRKIDKASVDEANIKTLYSEKLIGISIPIK,not soluble
17,QVQLQQSGAELMKPGASVKISCKATGYTFSSYWIAWVKQRPGHGLEWIGEILPGSGSTNYNEKFKGKATFTADTSSNTAYMQLSSLTSEDSAVYYCARSPYYYGNWDYWGQGTTLTVSSAKTTPPSVYPLAPGSAAQTNSMVTLGCLVKGYFPEPVTVTWNSGSLSSGVHTFPAVLQSDLYTLSSSVTVPSSTWPSETVTCNVAHPASSTKVDKKIVPRDC,soluble
18,MGSDKIHHHHHHMTISAQCNLQKLAFATTLAVTIVLSQGRAIGQVKHGSPIELAKADVSTAVRQDMANEVRIVGSLTPIRRSTLTSRVSSTIIELPVQIGDVVNAGDLLVRFERGALESAVTGRKAEADALSAQTELAEAVLERNTRLGERGAASEATRLAALADVLDLRAQLRSKQAEVSDAERSLSHAEVRAEFGGVIAARSVEEGQTVPLNTQLMTIVELNRLEVDAGVPTSRIPLIRLKQSVELTVEGFPGRTFSGEVARISPTADAGSRAVRVFIAVDNEEGLLRGGMFTIGDLRVDDQKDVIALPAASIRHDADGFFVLKVEAGVLQRRPVGLGRSWSDRDLVQVSGVSEGDVIVTAPLPDLVVNTPVIIEGI,not soluble
19,MAHHHHHHMKYNEAQMRFYLLCLNMKQANTKEDKSQKISNSSTIDEIEEEQLYTGPLKIEQLLAKGFVKRDLELLKEGGLQTVECVAYAPMRTLCAIKGISEQKAEKLKKACKELCNSGFCNAIDYHDARQNLIKFTTGSKQLDALLKGGIETGGITELFGEFRTGKSQLCHTLAITCQLPIEQSGGEGKCLWIDTEGTFRPERIVAIAKRYGLHPTDCLNNIAYAKAYNCDHQTELLIDASAMMADARFALLIVDSATALYRSEYIGRGELANRQSHLCRFLRGLQRIADIYGVAVIITNQVVAKVDAMSMFGGHEKIPIGGNIIAHASQTRLYLRKGRGESRICKIYDSPVLPEGEAVFAITEGGIADYEEK,not soluble
20,MMNALELQALRRIFDMTIEECTIYITQDNNSATWQRWEAGDIPISPEIIARLKEMKARRQRRINAIVDKINNRIGNNTMRYFPDLSSFQSIYTEGDFIEWKIYQSVAAELFAHDLERLC,soluble
21,MNPLFFLASPFLYLTYLIYYPNKGSFVSKPRNLQKMSSEPFKNVYLLPQTNQLLGLYTIIRNKNTTRPDFIFYSDRIIRLLVEEGLNHLPVQKQIVETDTNENFEGVSFMGKICGVSIVRAGESMEQGLRDCCRSVRIGKILIQRDEETALPKLFYEKLPEDISERYVFLLDPMLATGGSAIMATEVLIKRGVKPERIYFLNLICSKEGIEKYHAAFPEVRIVTGALDRGLDENKYLVPGLGDFGDRYYCV,not soluble
